In article PMC6659632, “Preferential phosphatidylinositol 5-phosphate binding contributes to a destabilization of the VHS domain structure of Tom1” (Scientific Reports, 2019):

Biological target: T1, ubiquitin (human, UniProt P0CG48 1-76)
T1 construct: ubiquitin, human; the cut product (one ubiquitin unit) of the polyubiquitin precursor; Construct was a gift (Dr. Julie Forman-Kay); also called human ubiquitin
Test: ITC; ubiquitin (5 mM) in the syringe, Tom1 VHS (50 uM) in the sample cell; 25 °C; 20 mM HEPES (pH 7.4), 150 mM KCl; one-site binding model; nonreducing conditions
Details: both partners purified

B1: Tom1 VHS domain (domain or fragment, human, UniProt O60784 20-152, looked up)
chain: ATDGSLQSEDWALNMEICDIINETEEGPKDALRAVKKRIVGNKNFHEVMLALTVLETCVKNCGHRFHVLVASQDFVESVLVRTILPKNNPPTIVHDKVLNLIQSWADAFRSSPDLTGVVTIYEDLRRKGLEFP
notes: Tom1 (target of Myb1), human, N-terminal VHS domain; measured average mass 15,708.01 Da, predicted 15.7 kDa; also called VHS domain of Tom1; target of Myb1 VHS domain; source: E. coli (Rosetta), GST fusion purified on glutathione beads, cleaved with thrombin, size-exclusion chromatography
Question: How did the Kd turn out when B1 was run?
Answer: 695 µM
